Data on 4 molecules can be found in patent US20160052997A1 (CELLTRION, published 2016).

The target of experiment [1] is T1, purified recombinant HA protein of H1N1 (A/Solomon Island/03/06) (Influenza A virus A/Solomon …).
Experiment [2] concerns the target T1, purified recombinant HA protein of H1N1 …. As to the kind of experiment: SPR, Biacore T200, HA captured via anti-6x his tag antibody, 25 C.
The target of experiment [3] is T2, HA of A/Solomon Islands/2006 (H1N1) virus (Influenza A virus A/Solomon …). As to the kind of experiment: cell-based or functional assay.
Experiment [4] deals with T3, HA of A/ck/HK/G9/97 (H9N2) virus (Influenza A virus A/ck/HK/G9/97 (H9N2)). The experiment is described as follows: cell-based or functional assay.
Experiment [5] has as its target T4, HA of A/Ohio/83 (H1N1) virus (Influenza A virus A/Ohio/83 (H1N1)). As to the kind of experiment: cell-based or functional assay.
Experiment [6] concerns the target T5, HA of A/Ohio/07/2009 (H1N1) virus (Influenza A virus A/Ohio/07/2009 (H1N1)). The experiment is described as follows: cell-based or functional assay.
In experiment [7] the target is HA of A/Green-winged teal/209/TX/2009 (H9N2) virus (Influenza A virus A/Green-winged …). As to the kind of experiment: cell-based or functional assay.
Experiment [8] concerns the target T6, HA of A/Texas/05/2009 (H1N1) virus (Influenza A virus A/Texas/05/2009 (H1N1)). As to the kind of experiment: cell-based or functional assay.
In experiment [9] the target is HA of A/turkeyNirginia/02 (H7N2) virus (Influenza A virus A/turkey/Virginia/02 …). As to the kind of experiment: cell-based or functional assay.
Experiment [10] deals with T7, HA of A/Brisbane/10/07 (H3N2) virus (Influenza A virus A/Brisbane/10/07 …). As to the kind of experiment: cell-based or functional assay.
Experiment [11] concerns the target T8, HA of Anhui/1/05 (H5N1) virus (Influenza A virus A/Anhui/1/05 (H5N1)). As to the kind of experiment: cell-based or functional assay.
Experiment [12] deals with T9, HA of A/New York/18/2009 (H1N1) virus (Influenza A virus A/New York/18/2009 …). As to the kind of experiment: cell-based or functional assay.
In experiment [13] the target is T10, HA of A/Wisconsin/67/05 (H3N2) virus (Influenza A virus A/Wisconsin/67/05 …). The experiment is described as follows: cell-based or functional assay.
The target of experiment [14] is T11, HA of A/Ann Arbor/6/60 ca (H2N2) virus (Influenza A virus A/Ann Arbor/6/60 ca …). The experiment is described as follows: cell-based or functional assay.
The target in experiment [15] is T2, HA of A/Solomon Islands/2006 (H1N1) …. The experiment is described as follows: cell-based or functional assay. This is another data set of the same source.
Experiment [16] has as its target T3, HA of A/ck/HK/G9/97 (H9N2) virus. The experiment is described as follows: cell-based or functional assay. This is another data set of the same source.
Experiment [17] concerns the target T4, HA of A/Ohio/83 (H1N1) virus. The experiment is described as follows: cell-based or functional assay. The source holds these as a separate data set.
The target in experiment [18] is T5, HA of A/Ohio/07/2009 (H1N1) virus. The experiment is described as follows: cell-based or functional assay. The source holds these as a separate data set.
The target of experiment [19] is HA of A/PuertoRico/8/34 (H1N1) virus (Influenza A virus A/PuertoRico/8/34 …, UniProt P03452 18-565). As to the kind of experiment: cell-based or functional assay.
Experiment [20] concerns the target T6, HA of A/Texas/05/2009 (H1N1) virus. As to the kind of experiment: cell-based or functional assay. This is another data set of the same source.
The target in experiment [21] is T8, HA of Anhui/1/05 (H5N1) virus. As to the kind of experiment: cell-based or functional assay. This is another data set of the same source.
For experiment [22], the target named is T11, HA of A/Ann Arbor/6/60 ca (H2N2) virus. The experiment is described as follows: cell-based or functional assay. The source holds these as a separate data set.
Experiment [23] has as its target T2, HA of A/Solomon Islands/2006 (H1N1) …. As to the kind of experiment: cell-based or functional assay. This is another data set of the same source.
The target of experiment [24] is T4, HA of A/Ohio/83 (H1N1) virus. As to the kind of experiment: cell-based or functional assay. The source holds these as a separate data set.
In experiment [25] the target is T6, HA of A/Texas/05/2009 (H1N1) virus. As to the kind of experiment: cell-based or functional assay. The source holds these as a separate data set.
In experiment [26] the target is T9, HA of A/New York/18/2009 (H1N1) virus. The experiment is described as follows: cell-based or functional assay. The source holds these as a separate data set.
The target of experiment [27] is T12, HA of A/Hong Kong/68 (H3N2) virus (Influenza A virus A/Hong Kong/68 (H3N2)). As to the kind of experiment: cell-based or functional assay.
The target of experiment [28] is T7, HA of A/Brisbane/10/07 (H3N2) virus. The experiment is described as follows: cell-based or functional assay. This is another data set of the same source.
The target of experiment [29] is T10, HA of A/Wisconsin/67/05 (H3N2) virus. The experiment is described as follows: cell-based or functional assay. The source holds these as a separate data set.
Experiment [30] concerns the target T12, HA of A/Hong Kong/68 (H3N2) virus. The experiment is described as follows: cell-based or functional assay. This is another data set of the same source.
Experiment [31] deals with HA of A/Shanghai/2/2013 (H7N9) virus (Influenza A virus A/Shanghai/2/2013 …). The experiment is described as follows: cell-based or functional assay.
In experiment [32] the target is HA of A/Sydney/5/97 (H3N2) virus (Influenza A virus A/Sydney/5/97 (H3N2)). The experiment is described as follows: cell-based or functional assay.
In experiment [33] the target is HA of A/Anhui/1/2013 (H7N9) virus (Influenza A virus A/Anhui/1/2013 (H7N9)). The experiment is described as follows: cell-based or functional assay.
Experiment [34] concerns the target HA of A/Perth/16/09 (H3N2) virus (Influenza A virus A/Perth/16/09 (H3N2)). The experiment is described as follows: cell-based or functional assay.
Experiment [35] deals with HA of A/Beijing/32/92-R-H3N2 PR8 virus (Influenza A virus A/Beijing/32/92 (H3N2)). The experiment is described as follows: cell-based or functional assay.

Substitutions are numbered along the chain they refer to. “And” between values parts separate entries of the source, which are not always exact repeats. Identical values can stand only once. Like-named read-outs stand apart in the source and are kept apart here.

B1: CT120 (antibody, V domains shown)
VH: QVQLVQSGAEVKMPGSSVKVSCKTSGVFFSSHAISWVRQAPGQGLEWMGGISPMFGTTHYAQKFQGRVTITADQSTTTAYMELTSLTSEDTAVYYCARDGAGSYYPLNWFDPWGQGTLVTVSS
VL: EIVLTQSPATLSLSPGERATLSCRASENIWNNLAWYQQKPGQAPRLLISGASTGATGVPSRFRGSGSRTEFTLTISSLQSEDFAIYFCQQYNSWPRTFGPGTKVEIKR
Consider B1, for which the Kd is 2.82 nM in experiment [1]; 2.79 nM and 2.85 nM in [2]. The koff in [2] was 0.000684 s⁻¹ and 0.000703 s⁻¹. For the same molecule, in [2], the kon was 245000 M⁻¹ s⁻¹ and 246000 M⁻¹ s⁻¹. Besides, the “MN test: lowest antibody concentration at which no virus antigen was detected” value (“MN test … at which no virus antigen was detected” for short) in experiment [3] was found to be 0.625 µg/mL; in experiment [4], 0.078 µg/mL; in experiment [5], 0.156 µg/mL; in experiment [6] it was 0.039 µg/mL; in [7] it was 0.625 µg/mL; in experiment [8], 0.156 µg/mL. Further, the “MN test … at which no virus antigen was detected” value in experiment [9] is above 20 µg/mL; in experiment [10], above 20 µg/mL; in experiment [11], 0.625 µg/mL; in experiment [12], 0.313 µg/mL; in experiment [13], above 10 µg/mL; in experiment [14], 0.312 µg/mL. The “MN test … at which no virus antigen was detected” value was 0.625 µg/mL in experiment [23], 0.156 µg/mL in experiment [24], 0.313 µg/mL in [25] and 0.313 µg/mL in experiment [26]. The “EC50, microneutralization test” value in experiment [15] is 0.25 µg/mL; in experiment [16], 3.12 µg/mL; in experiment [17], 0.26 µg/mL; in experiment [18], 0.14 µg/mL; in experiment [19], 0.33 µg/mL; in experiment [20], 1.19 µg/mL. Moreover, the “EC50, microneutralization test” value in [21] amounted to 6.92 µg/mL; in experiment [22], 6.53 µg/mL.

B2: CT149 (antibody, V domains shown)
VH: QVQLVQSGAEVKKPGASVKVSCKTSGYSFSTYGVSWVRQAPGQGPEWVGWISAYTGITDYAQKFQGRVTLTTDATTATAFLDLRSLRPDDTATYFCARDKVQGRVEVGSGGRHDYWGQGTLVIVSS
VL: EVVLTQSPGTLALPPGERATLSCRASHRVGSTYIAWYQQKSGQAPRRLIYGASNRATDIPDRFSGSGSGTDFTLTIRRLEPEDSAVYYCQQFSVSPWTFGQGTRVEIKR
Regarding B2, the Kd in experiment [1] is 345 nM; in [2], 368 nM and 323 nM. The “MN test … at which no virus antigen was detected” value in experiment [27] is 2.5 µg/mL; in experiment [28], 1.25 µg/mL; in experiment [29], 1.25 µg/mL; in experiment [3], above 10 µg/mL; in experiment [4], 0.312 µg/mL; in [5] it was above 10 µg/mL. The “MN test … at which no virus antigen was detected” value is 5 µg/mL in experiment [6]; 2.5 µg/mL in experiment [30]; 0.156 µg/mL in [7]; above 10 µg/mL in [8]; 10 µg/mL in experiment [9]; 1.25 µg/mL in [10]. Further, the “MN test … at which no virus antigen was detected” value in experiment [11] was 0.625 µg/mL; in experiment [12], above 10 µg/mL; in [13], 1.25 µg/mL; in [14], above 10 µg/mL. The koff in experiment [2] is 0.0904 s⁻¹ and 0.105 s⁻¹. The on-rate (kon) in [2] is 246000 M⁻¹ s⁻¹ and 324000 M⁻¹ s⁻¹. Also, the “EC50, microneutralization test (Contract Lab A)” value in experiment [31] is 1.17 µg/mL; in experiment [33] it was 0.9 µg/mL. Besides, in experiment [31], the “EC50, microneutralization test (Contract Lab B)” value was determined as 7.71 µg/mL. The “EC50, microneutralization test” value turned out to be 7.39 µg/mL in [16]; 2.93 µg/mL in experiment [32]; 2.06 µg/mL in experiment [34]; 11 µg/mL in [21]; 1.36 µg/mL in experiment [35].

B3: CT104 (antibody, V domains shown)
VH: QVQLVQSGAEVKKPGSSVKVSCKASGGTLNNYAISWVRQAPGQGLEWMGGISPIFGTLNYAERFQGRVTITADVFTNTVYMELSSLRSEDTAVYFCARGCGYNCYYFDGWGQGTLVTVSS
VL: EIVLTQSPGTLSLSPGERATLSCRASQSLSSSSLVWYQQKPGQAPRLLIYGASSRATGIPDRFSGSGSGTDFTLTISRLEPEDFAVYYCQQYGNSPYTFGQGTQVEIKR
On to B3, for which the “MN test … at which no virus antigen was detected” value in experiment [23] was determined as 0.625 µg/mL; in experiment [24] it was 0.313 µg/mL; in experiment [25] it was 0.313 µg/mL; in experiment [26] it was 0.625 µg/mL.

B4: CT123 (antibody, V domains shown)
VH: QVQLVESGGGVVQPGRSLRLSCAASGFTFSRFGIHWVRQAPGKGLEWMAVIWYDGSNKFYADSVKGRFTISRDNSKNTVYLQMNSLRAEDTAVYYCAKDSRGYCSSIICFEGGLDNWGQGTLVTVSS
VL: B3 VL with I2T, L29V, S31I, S33Y, V35A, Q39R, S54R, N94S, Q104K, V105L
For the molecule B4, the “MN test … at which no virus antigen was detected” value in experiment [23] was determined as 1.25 µg/mL; in [24] it was 0.313 µg/mL; in [25], 0.313 µg/mL; in experiment [26], 0.625 µg/mL.
